Publication PMC12430012

Target: GST-α-synuclein, P37840
Assay: GST pull-down (glutathione agarose), western blot, ImageJ quantification
Details: chain shown with the change; E. coli lysates, in vitro; parent: est. 1.0; read off a plot

ratio to parent | Binder
0.8 | His6-DNAJB11 WT, Q9UBS4 T188A (protein) GRDFYKILGVPRSASIKDIKKAYRKLALQLHPDRNPDDPQAQEKFQDLGAAYEVLSDSEKRKQYDTYGEEGLKDGHQSSHGDIFSHFFGDFGFMFGGTPRQQDRNIPRGSDIIVDLEVTLEEVYAGNFVEVVRNKPVARQAPGKRKCNCRQEMRTTQLGPGRFQMAQEVVCDECPNVKLVNEERTLEVEIEPGVRDGMEYPFIGEGEPHVDGEPGDLRFRIKVVKHPIFERRGDDLYTNVTISLVESLVGFEMDITHLDGHKVHISRDKITRPGAKLWKKGEGLPNFDNNNIKGSLIITFDVDFPKEQLTEEAREGIKQLLKQGSVQKVYNGLQGY
4.9 | His6-DNAJB11 WT, Q9UBS4 T188E (protein) GRDFYKILGVPRSASIKDIKKAYRKLALQLHPDRNPDDPQAQEKFQDLGAAYEVLSDSEKRKQYDTYGEEGLKDGHQSSHGDIFSHFFGDFGFMFGGTPRQQDRNIPRGSDIIVDLEVTLEEVYAGNFVEVVRNKPVARQAPGKRKCNCRQEMRTTQLGPGRFQMEQEVVCDECPNVKLVNEERTLEVEIEPGVRDGMEYPFIGEGEPHVDGEPGDLRFRIKVVKHPIFERRGDDLYTNVTISLVESLVGFEMDITHLDGHKVHISRDKITRPGAKLWKKGEGLPNFDNNNIKGSLIITFDVDFPKEQLTEEAREGIKQLLKQGSVQKVYNGLQGY
